This is an account of results in patent publication US20100135987A1.

“And” between values parts separate entries of the source, which are not always exact repeats. Equal values may be shown once.

In experiment [1] the target is Protein A (ligand of MabSelect resin, GE Healthcare) (UniProt P38507). The experiment can be described thus: dynamic binding capacity of MabSelect column at 5% breakthrough, dual-flow rate load, average of Exp. 3 and 4.
Experiment [2] shares this target. Briefly: dynamic binding capacity of MabSelect column at 5% breakthrough, load at 300 cm/hr, average of Exp. 1 and 2.
Experiment [3] has the same target. The experiment can be described thus: dynamic binding capacity of MabSelect column at 5% breakthrough, load at 300 cm/hr.
The target is the same in experiment [4]. The experiment can be described thus: dynamic binding capacity of MabSelect column at 5% breakthrough, 300 cm/hr to 35 mg Ab/mL resin, then 150 cm/hr.

Take anti-IL-12 antibody (ABT-874): the DBC at 5% BT (mg Ab/mL resin) in experiment [1] was 51.7; in experiment [2], 44.3; in experiment [3], 43.7 and 44.9; in experiment [4], 51.6 and 51.7.
